Source: article PMC5567221, “The open architecture of HD-PTP phosphatase provides new insights into the mechanism of regulation of ESCRT function” (Scientific Reports, 2017)

B1: GST-tagged full length CHMP4B (natural protein, UniProt Q9H444 1-224, looked up)
chain: MSVFGKLFGAGGGKAGKGGPTPQEAIQRLRDTEEMLSKKQEFLEKKIEQELTAAKKHGTKNKRAALQALKRKKRYEKQLAQIDGTLSTIEFQREALENANTNTEVLKNMGYAAKAMKAAHDNMDIDKVDELMQDIADQQELAEEISTAISKPVGFGEEFDEDELMAELEELEQEELDKNLLEISGPETVPLPNVPSIALPSKPAKKKEEEDDDMKELENWAGSM
notes: CHMP4B (ESCRT-III subunit), full length; Captured on the chip by an anti-GST antibody; also called FL-CHMP4B; source: E. coli C41, purified (GSTrap FF, glutathione elution)
B2: CHMP4B peptide (residues 205-224) (peptide)
peptide: KKKEEEDDDMKELENWAGSM
notes: CHMP4B, C-terminal residues 205-224; also called peptide from the C-terminus of CHMP4B; source: synthetic peptide (Generon Ltd, UK)
B3: UBAP1 peptide (residues 261-280) (peptide)
peptide: SNIKSLSFPKLDSDDSNQKT
notes: UBAP1 (ESCRT-I subunit), central region, residues 261-280; also called central region of UBAP1; source: synthetic peptide (Generon Ltd, UK)

Assays:
Conditions in all cases: both partners purified
[1] = biological target: T1, HD-PTP Bro1-CC-PRR (residues 1-738) (UniProt Q9H3S7 1-738); test: SPR; ProteOn XPR36; GST-FL-CHMP4B captured on a GLC chip derivatised with anti-GST antibody (3000-4000 RU); HD-PTP proteins as analytes; equilibrium binding model; 25 °C; 10 mM HEPES pH 7.4, 150 mM NaCl, 0.05% Tween-20
T1 construct: His Domain Protein Tyrosine Phosphatase (HD-PTP), Bro1 and coiled-coil domains plus the proximal region of the PRR (714-738), residues 1-738; cloned into pET28a (NdeI/XhoI); immobilised by the His6 tag on the HTE chip; also called HD-PTP_(Bro1-CC-PRR (+tag)); source: E. coli BL-21(DE3), purified (Nickel beads, MonoQ anion exchange, Superdex200 SEC); not shown: His6, N-terminal, kept
T1 sequence (looked up): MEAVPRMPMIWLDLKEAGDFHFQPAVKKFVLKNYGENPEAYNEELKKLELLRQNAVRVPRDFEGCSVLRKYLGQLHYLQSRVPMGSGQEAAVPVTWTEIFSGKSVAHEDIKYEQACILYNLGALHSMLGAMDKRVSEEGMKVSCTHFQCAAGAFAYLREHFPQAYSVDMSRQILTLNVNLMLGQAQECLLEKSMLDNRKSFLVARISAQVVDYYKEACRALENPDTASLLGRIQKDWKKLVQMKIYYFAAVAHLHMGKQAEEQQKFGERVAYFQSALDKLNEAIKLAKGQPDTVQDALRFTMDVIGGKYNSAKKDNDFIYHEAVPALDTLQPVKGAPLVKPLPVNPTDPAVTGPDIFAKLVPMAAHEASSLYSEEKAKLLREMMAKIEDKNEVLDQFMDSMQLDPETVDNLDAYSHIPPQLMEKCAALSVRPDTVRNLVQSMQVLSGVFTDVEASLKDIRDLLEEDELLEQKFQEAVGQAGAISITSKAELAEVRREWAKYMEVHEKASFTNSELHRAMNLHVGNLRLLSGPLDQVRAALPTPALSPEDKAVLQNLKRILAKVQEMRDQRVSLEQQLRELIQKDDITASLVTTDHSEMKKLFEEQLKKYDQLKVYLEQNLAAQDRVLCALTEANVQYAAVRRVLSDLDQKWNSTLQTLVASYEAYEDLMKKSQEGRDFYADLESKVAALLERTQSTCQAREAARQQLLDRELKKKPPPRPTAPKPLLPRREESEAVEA

[2] = biological target: T2, HD-PTP Bro1 domain (residues 1-361) (UniProt Q9H3S7 1-361); test: as above
T2 construct: His Domain Protein Tyrosine Phosphatase (HD-PTP), Bro1 domain, residues 1-361; cloned into pNIC-28a-Bsa4; No tag cleavage is described for the His6-tagged proteins; The vector pNIC28-Bsa4 probably adds an N-terminal His6 tag with a TEV site (surmise); also called His Domain Protein Tyrosine Phosphatase Bro1; source: E. coli BL-21(DE3), purified (Nickel beads, MonoQ anion exchange, Superdex200 SEC)
T2 sequence (looked up): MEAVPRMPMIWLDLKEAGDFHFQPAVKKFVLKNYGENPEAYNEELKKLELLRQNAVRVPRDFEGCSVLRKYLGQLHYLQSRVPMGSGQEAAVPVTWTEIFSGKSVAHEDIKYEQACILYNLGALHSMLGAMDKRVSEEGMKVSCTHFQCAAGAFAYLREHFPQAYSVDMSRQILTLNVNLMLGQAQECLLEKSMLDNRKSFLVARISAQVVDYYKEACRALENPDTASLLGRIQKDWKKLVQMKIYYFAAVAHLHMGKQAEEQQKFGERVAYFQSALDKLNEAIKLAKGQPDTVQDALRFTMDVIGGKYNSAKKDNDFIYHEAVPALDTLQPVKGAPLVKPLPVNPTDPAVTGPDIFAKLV

[3] = biological target: T1, HD-PTP Bro1-CC-PRR (residues 1-738); test: SPR; ProteOn XPR36; His6-tagged HD-PTP Bro1-CC-PRR immobilised on an HTE chip (5000-8000 RU); synthetic peptides as analytes; equilibrium binding model; 25 °C; 10 mM HEPES pH 7.4, 150 mM NaCl, 0.05% Tween-20

| Binder | Kd [1] | Kd [2] | Kd [3] |
| --- | --- | --- | --- |
| B1 | 1100 ± 100 nM | 4.88 ± 0.3 µM |  |
| B2 |  |  | 30.9 ± 0.2 µM |
| B3 |  |  | 57.5 ± 3.1 µM |
